The source of these data is US20140371148A1.

The test has as its target Recombinant DPP-IV. As to the kind of experiment: cell-based or functional assay.

No end group written: not given here.

As to YAEGTFISDYSIALDKIHQQDFVNWLLAQKPSSGAPPPS-{Ado-Lys(N-ε-(2-(S)-cyano pyrrolidyl))} [[Leu^14] GIP(1-30)-exendin-4(31-39)-Ado-Lys-N-ε-(2-(S)-cyano pyrrolidyl)], the DPP-IV IC50 worked out at 82 nM.
As to YAEGTFISDYSIAMDKIHQQDFVNWLLAQKPSSGAPPPS (modifications not checked) [N-(γ-L-Glu-(2-(S)-cyano pyrrolidyl)-Ado-Ado) GIP(1-30)-exendin-4(31-39)], the DPP-IV IC50 was 110 nM.
YAEGTFISDYSIAMDKIHQQDFVNWLLAQKPSSGAPPPS (modifications not checked) [[D-Ala^2] GIP(1-30)-exendin-4(31-39)-Ado-Lys-N-ε-(2-(S)-cyano pyrrolidyl)]: the DPP-IV IC50 was 85 nM.
